Test results taken from paper doi:10.1101/2022.04.26.489478, “Shuffled ATG8 interacting motifs form an ancestral bridge between UFMylation and C53-mediated autophagy” (bioRxiv, 2022).

Target: T1, mCherry tagged HsC53 (human, UniProt Q96JB5 1-506)
T1 construct: C53 (CDK5RAP3), Homo sapiens; also called human C53; mCh-HsC53; source: E. coli Rosetta2 (DE3) pLysS, purified (HisTrap, ion exchange, SEC)
T1 sequence (looked up): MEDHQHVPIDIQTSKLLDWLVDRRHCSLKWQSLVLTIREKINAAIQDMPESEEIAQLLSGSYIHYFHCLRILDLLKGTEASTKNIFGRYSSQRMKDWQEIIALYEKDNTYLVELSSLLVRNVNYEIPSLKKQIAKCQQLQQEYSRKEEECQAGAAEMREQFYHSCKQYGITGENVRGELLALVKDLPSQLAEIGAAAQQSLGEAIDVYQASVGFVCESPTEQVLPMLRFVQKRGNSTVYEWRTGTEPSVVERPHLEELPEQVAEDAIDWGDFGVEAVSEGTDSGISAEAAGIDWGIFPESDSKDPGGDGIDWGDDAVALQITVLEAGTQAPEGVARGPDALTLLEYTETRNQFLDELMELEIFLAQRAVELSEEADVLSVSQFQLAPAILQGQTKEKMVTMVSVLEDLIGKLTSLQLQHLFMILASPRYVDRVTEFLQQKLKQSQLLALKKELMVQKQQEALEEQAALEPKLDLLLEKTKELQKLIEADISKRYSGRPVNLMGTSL
Test: microscopy-based on-bead protein-protein interaction assay; GST-tagged bait (2 µM) on Glutathione Sepharose 4B beads, 1 µM mCherry tagged partner with or without competitor, 25 mM HEPES pH 7.5, 150 mM NaCl, 1 mM DTT, 30-60 min at RT, confocal imaging; fluorescence normalized to the control condition
Conditions: both partners purified

B1: GST-GABARAP (natural protein, human, UniProt O95166 1-117, looked up)
chain: MKFVYKEEHPFEKRRSEGEKIRKKYPDRVPVIVEKAPKARIGDLDKKKYLVPSDLTVGQFYFLIRKRIHLRAEDALFFFVNNVIPPTSATMGQLYQEHHEEDFFLYIAYSDESVYGL
notes: GABARAP, human ATG8 isoform; also called human ATG8 isoform GABARAP; source: E. coli Rosetta2 (DE3) pLysS; in bacterial lysate (pull-downs) and purified (on-bead assays)
  binding result: binds
